# From US20170096485A1 (Hoffmann-La Roche, published 2017)
# Residue numbers refer to the chain shown, from its start. Read-outs that look alike come from different tables or passages of the source.
# B1: MSLN TCB molecule A: '2+1 IgG CrossFab, inverted' with charge modifications (VH/VL exchange in CD3 binder, charge modification in mesothelin binders) (bispecific antibody)
# heavy 1: QVQLVQSGAEVKKPGASVKVSCKASGYSFTGYTMNWVRQAPGQGLEWMGLITPYNGASSYNQKFRGKATMTVDTSTSTVYMELSSLRSEDTAVYYCARGGYDGRGFDYWGQGTLVTVSSASTKGPSVFPLAPSSKSTSGGTAALGCLVEDYFPEPVTVSWNSGALTSGVHTFPAVLQSSGLYSLSSVVTVPSSSLGTQTYICNVNHKPSNTKVDEKVEPKSCDKTHTCPPCPAPEAAGGPSVFLFPPKPKDTLMISRTPEVTCVVVDVSHEDPEVKFNWYVDGVEVHNAKTKPREEQYNSTYRVVSVLTVLHQDWLNGKEYKCKVSNKALGAPIEKTISKAKGQPREPQVCTLPPSRDELTKNQVSLSCAVKGFYPSDIAVEWESNGQPENNYKTTPPVLDSDGSFFLVSKLTVDKSRWQQGNVFSCSVMHEALHNHYTQKSLSLSP
# heavy 2: not shown
# light 1: EVQLLESGGGLVQPGGSLRLSCAASGFTFSTYAMNWVRQAPGKGLEWVSRIRSKYNNYATYYADSVKGRFTISRDDSKNTLYLQMNSLRAEDTAVYYCVRHGNFGNSYVSWFAYWGQGTLVTVSSASVAAPSVFIFPPSDEQLKSGTASVVCLLNNFYPREAKVQWKVDNALQSGNSQESVTEQDSKDSTYSLSSTLTLSKADYEKHKVYACEVTHQGLSSPVTKSFNRGEC
# light 2: DIQMTQSPSSLSASVGDRVTITCSASSSVSYMHWYQQKSGKAPKLLIYDTSKLASGVPSRFSGSGSGTDFTLTISSLQPEDFATYYCQQWSKHPLTFGQGTKLEIKRTVAAPSVFIFPPSDRKLKSGTASVVCLLNNFYPREAKVQWKVDNALQSGNSQESVTEQDSKDSTYSLSSTLTLSKADYEKHKVYACEVTHQGLSSPVTKSFNRGEC
# B2: MSLN TCB molecule C: '2+1 IgG CrossFab, inverted' without charge modifications (VH/VL exchange in CD3 binder) (bispecific antibody)
# light: B1 light 1
# chain 1: B1 heavy 1 with E149K, E215K
# chain 2: not shown
# chain 3: B1 light 2 with R122E, K123Q
# B3: MSLN TCB molecule F: '1+1 IgG CrossMab' with charge modifications (bispecific antibody)
# heavy 1: B1 heavy 1
# heavy 2: not shown
# light 1: B1 light 1
# light 2: B1 light 2
# B4: MSLN TCB molecule E: '1+1 IgG CrossFab, inverted' with charge modifications (bispecific antibody)
# heavy: not shown
# light 1: B1 light 1
# light 2: B1 light 2
# chain: DKTHTCPPCPAPEAAGGPSVFLFPPKPKDTLMISRTPEVTCVVVDVSHEDPEVKFNWYVDGVEVHNAKTKPREEQYNSTYRVVSVLTVLHQDWLNGKEYKCKVSNKALGAPIEKTISKAKGQPREPQVCTLPPSRDELTKNQVSLSCAVKGFYPSDIAVEWESNGQPENNYKTTPPVLDSDGSFFLVSKLTVDKSRWQQGNVFSCSVMHEALHNHYTQKSLSLSP
# What was measured:
# human mesothelin [1] = molecular target: T1, human mesothelin (human, UniProt Q13421 296-580); assay: cell-based or functional assay
# cynomolgus mesothelin = molecular target: T2, cynomolgus mesothelin (cynomolgus); assay: flow cytometry on CHO cells transiently transfected to express cynomolgus MSLN
# T2 construct: whole, on cells; also called cynomolgus MSLN
# human mesothelin [2] = molecular target: T1, human mesothelin; assay: cell-based or functional assay; remark: listed apart in the source
# human mesothelin [3] = molecular target: T1, human mesothelin; assay: flow cytometry on MSLN-expressing AsPC-1 cells, 3.8 pM-300 nM, fit with GraphPad Prism6
# Procedure: (§1) Briefly, Jurkat suspension cells were harvested, counted and checked for viability. Adherent AsPC-1 cells were harvested using Cell Dissociation Buffer (Gibco, #13151014), counted, checked for viability, and re-suspended at 0.9×10⁶ cells/ml in FACS buffer (100 μl PBS 0.1% BSA). […] Cells were re-incubated for further 30 min at 4° C. with the 1:100 pre-diluted AlexaFluor 647—F(ab′)₂ Fragment Goat Anti-Human IgG, Fey fragment specific secondary antibody (Jackson Immuno Research Lab, […] #109-096-008) and thereafter washed twice with cold PBS 0.1% BSA.
# (§2) The stained cells were re-suspended in 100 μl 2% paraformaldehyde-containing FACS Buffer and incubated for 30 min at room temperature to fix the staining. Finally cells were centrifuged for 4 min at 350×g and 4° C., the supernatants were discarded and the cell pellets re-suspended in 200 μl FACS Buffer. Staining was analyzed by FACS using a FACS Canto II (Software FACS Diva). Binding curves and EC50 values were obtained using GraphPadPrism6 (FIG. 8A, binding to Jurkat cells, FIG. 8B binding to AsPC-1 cells).
# human mesothelin [4] = molecular target: T1, human mesothelin; assay: cell-based or functional assay; remark: listed apart in the source
# human mesothelin [5] = molecular target: T1, human mesothelin; assay: flow cytometry on CHO cells transiently transfected to express human MSLN
# human mesothelin [6] = molecular target: T1, human mesothelin; assay: cell-based or functional assay; remark: listed apart in the source
# human CD3 = molecular target: T3, human CD3 (human, UniProt P07766 23-207); assay: flow cytometry on Jurkat cells, 3.8 pM-300 nM
# T3 construct: also called CD3 epsilon
# Procedure: as §1, §2
# human mesothelin [7] = molecular target: T1, human mesothelin; assay: cell-based or functional assay; remark: listed apart in the source
# human mesothelin [8] = molecular target: T1, human mesothelin; assay: cell-based or functional assay; remark: listed apart in the source
# human mesothelin [9] = molecular target: T1, human mesothelin; assay: cell-based or functional assay; remark: listed apart in the source
# T1 sequence (Q13421 296-588): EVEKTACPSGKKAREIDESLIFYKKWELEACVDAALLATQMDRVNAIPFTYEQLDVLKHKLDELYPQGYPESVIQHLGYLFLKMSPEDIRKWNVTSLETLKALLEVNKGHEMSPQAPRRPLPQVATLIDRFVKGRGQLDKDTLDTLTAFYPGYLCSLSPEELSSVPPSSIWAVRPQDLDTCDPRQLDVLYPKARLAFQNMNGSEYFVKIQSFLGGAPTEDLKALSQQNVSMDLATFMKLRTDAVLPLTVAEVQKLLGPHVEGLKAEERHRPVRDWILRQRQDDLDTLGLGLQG
# T3 sequence (P07766 23-207 limits assumed): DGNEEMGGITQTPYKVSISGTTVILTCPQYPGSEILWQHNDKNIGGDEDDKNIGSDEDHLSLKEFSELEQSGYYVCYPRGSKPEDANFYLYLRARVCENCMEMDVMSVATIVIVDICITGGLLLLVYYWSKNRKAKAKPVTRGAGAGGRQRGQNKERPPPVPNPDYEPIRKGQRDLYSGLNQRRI
binder,measurement,setting,value
B1,"EC50 of T-cell mediated lysis of AsPC-1 cells, 48 h (LDH release)",human mesothelin [1],~0.498 nM
same,"EC50 of T-cell mediated lysis of BxPC-3 cells, 48 h (LDH release)",human mesothelin [1],0.258 nM
same,"EC50 of T-cell mediated lysis of NCI-H596 cells, 48 h (LDH release)",human mesothelin [1],0.313 nM
same,EC50,cynomolgus mesothelin,5.5 nM
same,"EC50 of CD69 up-regulation on CD4 T cells (% CD4+CD69+), AsPC-1 target cells (FACS)",human mesothelin [2],0.513 nM
same,"EC50 of CD69 up-regulation on CD4 T cells (% CD4+CD69+), BxPC-3 target cells (FACS)",human mesothelin [2],0.0598 nM
same,"EC50 of CD69 up-regulation on CD4 T cells (% CD4+CD69+), NCI-H596 target cells (FACS)",human mesothelin [2],0.0774 nM
same,"EC50 of CD69 up-regulation on CD8 T cells (% CD8+CD69+), AsPC-1 target cells (FACS)",human mesothelin [2],0.546 nM
same,"EC50 of CD69 up-regulation on CD8 T cells (% CD8+CD69+), BxPC-3 target cells (FACS)",human mesothelin [2],~0.118 nM
same,"EC50 of CD69 up-regulation on CD8 T cells (% CD8+CD69+), NCI-H596 target cells (FACS)",human mesothelin [2],0.145 nM
same,EC50,human mesothelin [3],1.44 nM
same,"EC50 of T-cell mediated lysis of AsPC-1 cells, 48 h (LDH release)",human mesothelin [4],0.146 nM
same,"EC50 of T-cell mediated lysis of BxPC-3 cells, 48 h (LDH release)",human mesothelin [4],0.0577 nM
same,"EC50 of T-cell mediated lysis of NCI-H596 cells, 48 h (LDH release)",human mesothelin [4],0.149 nM
same,EC50,human mesothelin [5],7.76 nM
same,"EC50 of T-cell mediated lysis of AsPC-1 cells, 48 h (LDH release)",human mesothelin [6],0.0762 nM
same,"EC50 of T-cell mediated lysis of BxPC-3 cells, 48 h (LDH release)",human mesothelin [6],0.0881 nM
same,"EC50 of T-cell mediated lysis of NCI-H596 cells, 24 h (LDH release)",human mesothelin [6],0.0251 nM
same,"EC50 of T-cell mediated lysis of NCI-H596 cells, 48 h (LDH release)",human mesothelin [6],0.0971 nM
same,binding result,human CD3,binds
same,"EC50 of CD69 up-regulation on CD4 T cells (% CD4+CD69+), AsPC-1 target cells, 48 h (FACS)",human mesothelin [7],0.174 nM
same,"EC50 of CD69 up-regulation on CD4 T cells (% CD4+CD69+), BxPC-3 target cells, 48 h (FACS)",human mesothelin [7],0.0774 nM
same,"EC50 of CD69 up-regulation on CD4 T cells (% CD4+CD69+), NCI-H596 target cells, 48 h (FACS)",human mesothelin [7],0.0412 nM
same,"EC50 of CD69 up-regulation on CD8 T cells (% CD8+CD69+), AsPC-1 target cells, 48 h (FACS)",human mesothelin [7],0.137 nM
same,"EC50 of CD69 up-regulation on CD8 T cells (% CD8+CD69+), BxPC-3 target cells, 48 h (FACS)",human mesothelin [7],0.0977 nM
same,"EC50 of CD69 up-regulation on CD8 T cells (% CD8+CD69+), NCI-H596 target cells, 48 h (FACS)",human mesothelin [7],0.0783 nM
same,"EC50 of CD69 up-regulation on CD4 T cells (% CD4+CD69+), AsPC-1 target cells, 72 h (FACS)",human mesothelin [8],0.131 nM
same,"EC50 of CD69 up-regulation on CD4 T cells (% CD4+CD69+), BxPC-3 target cells, 72 h (FACS)",human mesothelin [8],0.00752 nM
same,"EC50 of CD69 up-regulation on CD4 T cells (% CD4+CD69+), NCI-H596 target cells, 72 h (FACS)",human mesothelin [8],0.0352 nM
same,"EC50 of CD69 up-regulation on CD8 T cells (% CD8+CD69+), AsPC-1 target cells, 72 h (FACS)",human mesothelin [8],0.0936 nM
same,"EC50 of CD69 up-regulation on CD8 T cells (% CD8+CD69+), BxPC-3 target cells, 72 h (FACS)",human mesothelin [8],0.0307 nM
same,"EC50 of CD69 up-regulation on CD8 T cells (% CD8+CD69+), NCI-H596 target cells, 72 h (FACS)",human mesothelin [8],0.0476 nM
same,"EC50 of T-cell mediated killing of AsPC-1 cells, 24 h (LDH release, human PBMCs, E:T 10:1)",human mesothelin [9],0.308 nM
same,"EC50 of T-cell mediated killing of AsPC-1 cells, 48 h (LDH release, human PBMCs, E:T 10:1)",human mesothelin [9],0.1 nM
same,"EC50 of T-cell mediated killing of BxPC-3 cells, 24 h (LDH release, human PBMCs, E:T 10:1)",human mesothelin [9],0.0552 nM
same,"EC50 of T-cell mediated killing of BxPC-3 cells, 48 h (LDH release, human PBMCs, E:T 10:1)",human mesothelin [9],0.0195 nM
same,"EC50 of T-cell mediated killing of NCI-H596 cells, 24 h (LDH release, human PBMCs, E:T 10:1)",human mesothelin [9],0.1 nM
same,"EC50 of T-cell mediated killing of NCI-H596 cells, 48 h (LDH release, human PBMCs, E:T 10:1)",human mesothelin [9],0.143 nM
B2,EC50,human mesothelin [3],0.828 nM
B3,EC50,human mesothelin [3],4.59 nM
same,"EC50 of T-cell mediated lysis of AsPC-1 cells, 48 h (LDH release)",human mesothelin [4],0.37 nM
same,"EC50 of T-cell mediated lysis of NCI-H596 cells, 48 h (LDH release)",human mesothelin [4],0.319 nM
same,binding result,human CD3,binds
same,"EC50 of CD69 up-regulation on CD4 T cells (% CD4+CD69+), AsPC-1 target cells, 48 h (FACS)",human mesothelin [7],0.299 nM
same,"EC50 of CD69 up-regulation on CD4 T cells (% CD4+CD69+), BxPC-3 target cells, 48 h (FACS)",human mesothelin [7],~0.0958 nM
same,"EC50 of CD69 up-regulation on CD4 T cells (% CD4+CD69+), NCI-H596 target cells, 48 h (FACS)",human mesothelin [7],0.0454 nM
same,"EC50 of CD69 up-regulation on CD8 T cells (% CD8+CD69+), AsPC-1 target cells, 48 h (FACS)",human mesothelin [7],0.118 nM
same,"EC50 of CD69 up-regulation on CD8 T cells (% CD8+CD69+), BxPC-3 target cells, 48 h (FACS)",human mesothelin [7],0.479 nM
same,"EC50 of CD69 up-regulation on CD8 T cells (% CD8+CD69+), NCI-H596 target cells, 48 h (FACS)",human mesothelin [7],0.0532 nM
B4,EC50,human mesothelin [3],1.79 nM
same,"EC50 of T-cell mediated lysis of AsPC-1 cells, 48 h (LDH release)",human mesothelin [4],0.145 nM
same,"EC50 of T-cell mediated lysis of BxPC-3 cells, 48 h (LDH release)",human mesothelin [4],0.115 nM
same,"EC50 of T-cell mediated lysis of NCI-H596 cells, 48 h (LDH release)",human mesothelin [4],0.182 nM
same,"EC50 of CD69 up-regulation on CD4 T cells (% CD4+CD69+), AsPC-1 target cells, 48 h (FACS)",human mesothelin [7],0.167 nM
same,"EC50 of CD69 up-regulation on CD4 T cells (% CD4+CD69+), BxPC-3 target cells, 48 h (FACS)",human mesothelin [7],~0.0939 nM
same,"EC50 of CD69 up-regulation on CD4 T cells (% CD4+CD69+), NCI-H596 target cells, 48 h (FACS)",human mesothelin [7],0.0388 nM
same,"EC50 of CD69 up-regulation on CD8 T cells (% CD8+CD69+), AsPC-1 target cells, 48 h (FACS)",human mesothelin [7],0.146 nM
same,"EC50 of CD69 up-regulation on CD8 T cells (% CD8+CD69+), BxPC-3 target cells, 48 h (FACS)",human mesothelin [7],~0.0952 nM
same,"EC50 of CD69 up-regulation on CD8 T cells (% CD8+CD69+), NCI-H596 target cells, 48 h (FACS)",human mesothelin [7],0.0609 nM
